Holding throughout (assay type): biochemical
Assay [1] can be described thus: Substrate specificities of KAZ mutants (ZZ-fused, crude enzyme), CTZ. Conditions: for Relative Luminescence Activity CTZ Int. / Relative Luminescence Activity CTZ Imax: ZZ-fused crude enzyme, 1 μg substrate; for Relative Luminescence Activity CTZ Int.: integrated for 60 seconds; for Relative Luminescence Activity CTZ Imax: maximum intensity of luminescence; for Substrate specificity: coelenterazine versus its analogues. The procedure: (§1) The coelenterazine analogues used for substrate specificity studies were synthesized by the methods described in publications. Specifically, bis-coelenterazine was synthesized by the method described in Nakamura et al. (1997) Tetrahedron Lett. 38: 6405-6406; furimazine by the method described in Hall et al. (2012) ACS Chem. Biol. […]; and, 6h-coelenterazine, f-coelenterazine and 6h-f-coelenterazine by the methods described in Inouye et al (2013) Biochem. Biophys. Res. Commun. 437: 23-28.
(§2) DTT was added to the crude enzyme solutions obtained in EXAMPLE 17 at a final concentration of 1 mM and the mixtures were allowed to stand in an ice water for more than 5 hours in the same manner as Example 8. A luminescence reaction was started by the addition of 1 μL each of the crude enzyme solutions to 100 μL of TE containing 1 μg of coelenterazine (manufactured by JNC Corp.) or its analogues. The luminescence activities were determined using a luminometer (manufactured by Atto Inc.: AB2200) for 60 seconds, and the maximum intensity of luminescence (Imax) was shown as relative luminescence activity.

A short description of assay [2]: Substrate specificities of KAZ mutants (ZZ-fused, crude enzyme), furimazine. Conditions: 1 μg substrate; for Relative Luminescence Activity Furimazine Int.: integrated for 60 seconds; for Relative Luminescence Activity Furimazine Imax: maximum intensity of luminescence. The procedure: as §1, §2
Assay [3] is described as follows: Substrate specificities of KAZ mutants (ZZ-fused, crude enzyme), 6h-f-CTZ. Conditions: 1 μg substrate; for Relative Luminescence Activity 6h-f-CTZ Int.: integrated for 60 seconds; for Relative Luminescence Activity 6h-f-CTZ Imax: maximum intensity of luminescence. The procedure: as §1, §2
Assay [4] is described as follows: Substrate specificities of KAZ mutants (ZZ-fused, crude enzyme), h-CTZ. As to conditions: 1 μg substrate; for Relative Luminescence Activity h-CTZ Int.: integrated for 60 seconds; for Relative Luminescence Activity h-CTZ Imax: maximum intensity of luminescence. The procedure:
as §1, §2

Eight molecules from patent US10907134B2, “Mutated genes for the catalytic protein of oplophorus luciferase and use thereof” (JNC CORPORATION, priority 2013, dated 2021) can be followed below.

Positions count from the first letter of the chain named. In names and notes the source's numbering stands.

B1: KAZ-A54I: KAZ with single amino acid substitution A54I, SEQ ID NO: 6 (protein)
chain: FTLADFVGDWQQTAGYNQDQVLEQGGLSSLFQALGVSVTPIQKVVLSGENGLKIDIHVIIPYEGLSGFQMGLIEMIFKVVYPVDDHHFKIILHYGTLVIDGVTPNMIDYFGRPYPGIAVFDGKQITVTGTLWNGNKIYDERLINPDGSLLFRVTINGVTGWRLCENILA
Consider B1, for which, in assay [1], the “Relative Luminescence Activity CTZ Int.” value was determined as 9.0 and the “Relative Luminescence Activity CTZ Imax” value came to 8.4. In addition, in assay [2], the “Relative Luminescence Activity Furimazine Int.” value came to 2.1 and the “Relative Luminescence Activity Furimazine Imax” value came out at 2.0. In assay [3], the “Relative Luminescence Activity 6h-f-CTZ Int.” value was determined as 2.0 and the “Relative Luminescence Activity 6h-f-CTZ Imax” value is 1.6. In assay [4], the “Relative Luminescence Activity h-CTZ Int.” value was 6.9 and the “Relative Luminescence Activity h-CTZ Imax” value is listed as 11.8.

B2: KAZ-A54I-Y138I: KAZ mutant with two amino acid substitutions A54I and Y138I, SEQ ID NO: 14 (protein)
chain: B1 chain with Y138I
As to B2, in assay [1], the “Relative Luminescence Activity CTZ Int.” value worked out at 19.1, the “Relative Luminescence Activity CTZ Imax” value was 23.1 and the “Substrate specificity” value is “high substrate specificity for coelenterazine”. For the same molecule, in assay [2], the “Relative Luminescence Activity Furimazine Int.” value is 5.8 and the “Relative Luminescence Activity Furimazine Imax” value turned out to be 5.9. Moreover, in assay [3], the “Relative Luminescence Activity 6h-f-CTZ Int.” value is on record as 5.7 and the “Relative Luminescence Activity 6h-f-CTZ Imax” value was found to be 5.2. In assay [4], the “Relative Luminescence Activity h-CTZ Int.” value is given as 12.9 and the “Relative Luminescence Activity h-CTZ Imax” value came to 24.2.

B3: KAZ-V44I-A54I: KAZ mutant with two amino acid substitutions V44I and A54I, SEQ ID NO: 10 (protein)
chain: B1 chain with V44I
As for B3, in assay [1], the “Relative Luminescence Activity CTZ Int.” value is on record as 12.7, the “Relative Luminescence Activity CTZ Imax” value is recorded as 15.3 and the “Substrate specificity” value is recorded as “high substrate specificity for coelenterazine”. Further, in assay [2], the “Relative Luminescence Activity Furimazine Int.” value was 4.3 and the “Relative Luminescence Activity Furimazine Imax” value is on record as 3.4. In assay [3], the “Relative Luminescence Activity 6h-f-CTZ Int.” value is 4.0 and the “Relative Luminescence Activity 6h-f-CTZ Imax” value was 3.2. Moreover, in assay [4], the “Relative Luminescence Activity h-CTZ Int.” value was found to be 8.7 and the “Relative Luminescence Activity h-CTZ Imax” value was determined as 17.9.

B4: KAZ-V44I: KAZ with single amino acid substitution V44I, SEQ ID NO: 4 (protein)
chain: B1 chain with V44I, I54A
B4: in assay [1], the “Relative Luminescence Activity CTZ Int.” value is reported as 5.9 and the “Relative Luminescence Activity CTZ Imax” value came out at 7.2. In assay [2], the “Relative Luminescence Activity Furimazine Int.” value was 0.9 and the “Relative Luminescence Activity Furimazine Imax” value is on record as 0.6. Also, in assay [3], the “Relative Luminescence Activity 6h-f-CTZ Int.” value was 0.7 and the “Relative Luminescence Activity 6h-f-CTZ Imax” value is listed as 0.6. Further, in assay [4], the “Relative Luminescence Activity h-CTZ Int.” value was 2.2 and the “Relative Luminescence Activity h-CTZ Imax” value stood at 3.7.

B5: KAZ-Y138I: KAZ with single amino acid substitution Y138I, SEQ ID NO: 8 (protein)
chain: B1 chain with I54A, Y138I
Take B5: in assay [1], the “Relative Luminescence Activity CTZ Int.” value is 5.9 and the “Relative Luminescence Activity CTZ Imax” value stood at 7.5. For the same molecule, in assay [2], the “Relative Luminescence Activity Furimazine Int.” value was found to be 0.8 and the “Relative Luminescence Activity Furimazine Imax” value was 0.6. Also, in assay [3], the “Relative Luminescence Activity 6h-f-CTZ Int.” value is on record as 0.8 and the “Relative Luminescence Activity 6h-f-CTZ Imax” value worked out at 0.6. Moreover, in assay [4], the “Relative Luminescence Activity h-CTZ Int.” value came out at 3.0 and the “Relative Luminescence Activity h-CTZ Imax” value was determined as 3.9.

B6: KAZ-V44I-Y138I: KAZ mutant with two amino acid substitutions V44I and Y138I, SEQ ID NO: 12 (protein)
chain: B1 chain with V44I, I54A, Y138I
For B6, in assay [1], the “Relative Luminescence Activity CTZ Int.” value worked out at 9.9, the “Relative Luminescence Activity CTZ Imax” value is on record as 17.1 and the “Substrate specificity” value is “high substrate specificity for coelenterazine”. In assay [2], the “Relative Luminescence Activity Furimazine Int.” value came to 5.4 and the “Relative Luminescence Activity Furimazine Imax” value is given as 5.1. Also, in assay [3], the “Relative Luminescence Activity 6h-f-CTZ Int.” value turned out to be 4.2 and the “Relative Luminescence Activity 6h-f-CTZ Imax” value is given as 3.6. In assay [4], the “Relative Luminescence Activity h-CTZ Int.” value was found to be 9.7 and the “Relative Luminescence Activity h-CTZ Imax” value was found to be 19.1.

B7: KAZ: wild 19 kDa catalytic protein of Oplophorus luciferase (19kOLase), amino acid sequence SEQ ID NO: 2 (protein, listed as Oplophorus gracilirostris)
chain: B1 chain with I54A
Regarding B7, in assay [1], the “Relative Luminescence Activity CTZ Int.” value was 1.0 and the “Relative Luminescence Activity CTZ Imax” value amounted to 1.0. Further, in assay [2], the “Relative Luminescence Activity Furimazine Int.” value was determined as 0.5 and the “Relative Luminescence Activity Furimazine Imax” value was 0.4. Also, in assay [3], the “Relative Luminescence Activity 6h-f-CTZ Int.” value is given as 0.7 and the “Relative Luminescence Activity 6h-f-CTZ Imax” value is 0.6. For the same molecule, in assay [4], the “Relative Luminescence Activity h-CTZ Int.” value worked out at 0.7 and the “Relative Luminescence Activity h-CTZ Imax” value is given as 1.1.

B8: KAZ-V44I-A54I-Y138I: KAZ mutant with three amino acid substitutions V44I, A54I and Y138I, SEQ ID NO: 16 (protein)
chain: B1 chain with V44I, Y138I
B8: in assay [1], the “Relative Luminescence Activity CTZ Int.” value was determined as 66.7, the “Relative Luminescence Activity CTZ Imax” value turned out to be 66.7 and the “Substrate specificity” value is “high substrate specificity for coelenterazine”. In assay [2], the “Relative Luminescence Activity Furimazine Int.” value is reported as 9.2 and the “Relative Luminescence Activity Furimazine Imax” value was 10.6. In assay [3], the “Relative Luminescence Activity 6h-f-CTZ Int.” value came out at 9.6 and the “Relative Luminescence Activity 6h-f-CTZ Imax” value is on record as 9.5. In addition, in assay [4], the “Relative Luminescence Activity h-CTZ Int.” value was 33.2 and the “Relative Luminescence Activity h-CTZ Imax” value amounted to 83.1.
